From article PMC7335091, “Mechanistic insights into chromatin targeting by leukemic NUP98-PHF23 fusion” (Nature Communications, 2020)
Substitutions are numbered along the chain they refer to. Where two headings read alike, the source gives them in different places. Each block holds one molecule with its values, some of them ahead of it. Non-standard residues stand in square brackets, D forms with d. No end group written: not given here. Lys(Me3) = C[N+](C)(C)CCCC[C@H](N)C(=O)O

T1: PHF23 PHD finger (PHF23PHD) (Homo sapiens, UniProt Q9BUL5)
T1 construct: PHD domain (aa 338–393)
T1 sequence (Q9BUL5 338-393): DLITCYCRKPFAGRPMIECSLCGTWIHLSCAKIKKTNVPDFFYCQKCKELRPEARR

T2: PHD finger of PHF23 (aa 338-393), R345L cancer-relevant mutant (human, UniProt Q9BUL5 338-393, R345L)
T2 construct: human PHF23, PHD domain, aa 338-393, with the cancer-relevant mutation R345L (Cosmic); also called PHF23PHD R345L; source: E. coli BL21 (DE3) RIL, grown and purified as wild-type protein
T2 sequence (looked up): T1 sequence (Q9BUL5 338-393) with R8L

T3: PHD finger of PHF23 (aa 338-393), L358M cancer-relevant mutant (human, UniProt Q9BUL5 338-393, L358M)
T3 construct: human PHF23, PHD domain, aa 338-393, with the cancer-relevant mutation L358M (Cosmic); also called PHF23PHD L358M; source: E. coli BL21 (DE3) RIL, grown and purified as wild-type protein
T3 sequence (looked up): T1 sequence (Q9BUL5 338-393) with L21M

B1: PHD finger of PHF23 (aa 338-393), wild type (domain or fragment, human, UniProt Q9BUL5 338-393, looked up)
chain: T1 sequence (Q9BUL5 338-393)
notes: human PHF23, PHD domain, aa 338-393, cloned into pGEX 6p-1; 15N- or 13C,15N-labelled for NMR; also called PHF23PHD; WT PHF23PHD; source: E. coli BL21 (DE3) RIL, purified (glutathione Sepharose 4B, GST cleaved, size exclusion chromatography)
B2: histone H3K4me0 peptide (unmodified H3) (peptide)
chain: ARTKQTARKSTG
modifications: unmodified Lys4. Limits 1-12 taken from the H3K4me3 peptide of the same titration series
B3: histone H3K4me3 peptide (aa 1-12 of H3K4me3) (peptide, UniProt P68431 2-13, looked up)
peptide: ART[Lys(Me3)]QTARKSTG
notes: histone H3, residues 1-12, trimethylated on Lys4; source: synthetic peptide (SynPeptide)

Experiments:
[1] = target: histone H3K4me3 peptide (Homo sapiens) (UniProt P68431); conditions: cited from earlier work
[2] = target: histone H3K4me3 peptide (Homo sapiens) (UniProt P68431); conditions: cited from earlier work; remark: listed apart in the source
[3] = target: PHD finger of PHF23 (aa 338-393), wild type (human) (UniProt Q9BUL5); assay: other fluorescence titration; intrinsic tryptophan fluorescence, 25 °C; 2.0 µM PHF23PHD with increasing peptide, PBS (pH 6.5), 1 mM TCEP, excitation 295 nm; Kd averaged over three experiments
[4] = target: T1, PHF23 PHD finger (PHF23PHD); assay: 1H, […] HSQC NMR titration; nonreducing SDS-PAGE; type: binding
[5] = target: the molecule itself; assay: crystal structure; PHF23PHD crystallized in the presence of H3K4me3 peptide; 0.1 M Tris pH 8.65, 25% tert-butanol, 18 °C; 2.9 Å; the peptide is not in the structure
[6] = target: B1; assay: NMR titration; 1H,15N HSQC at 298 K; 0.1 mM 15N-labeled PHD in PBS (pH 6.5), 1 mM TCEP, 8% D2O; histone H3 peptide titrated in; Kd from chemical shift changes against peptide concentration; conditions: both partners purified
[7] = target: PHD finger of PHF23 (aa 338-393), L358M cancer-relevant mutant (human, UniProt Q9BUL5 338-393, L358M)
Target sequence in this assay (Q9BUL5 338-393 L358M): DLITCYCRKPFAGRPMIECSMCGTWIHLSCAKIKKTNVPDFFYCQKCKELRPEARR

[8] = target: PHD finger of PHF23 (aa 338-393), R345L cancer-relevant mutant (human, UniProt Q9BUL5 338-393, R345L)
[9] = target: B1; assay: other fluorescence titration; intrinsic tryptophan fluorescence, 25 °C; 2.0 µM PHF23PHD with increasing peptide, PBS (pH 6.5), 1 mM TCEP, excitation 295 nm; Kd averaged over three experiments; conditions: both partners purified
[10] = target: T2, PHD finger of PHF23 (aa 338-393), R345L …; assay: as above; conditions: both partners purified
[11] = target: T3, PHD finger of PHF23 (aa 338-393), L358M …; assay: as above; conditions: both partners purified

Molecule: KDM5A PHD (from UniProt P29375)
Kd [1]: 0.9 µM

Molecule: BPTF PHD (from UniProt Q12830)
Kd [2]: 3 µM

Kd [3]: 8 µM
Molecule: histone H3K4me2 peptide

Molecule: CCN(CC)C(=S)SSC(=S)N(CC)CC [DS, disulfiram]
1H,15N HSQC NMR titration; nonreducing SDS-PAGE [4]: Gradual addition of AD or DS to PHF23PHD induced small but significant CSPs in the protein, indicative of direct interactions

Molecule: B1
binding result [5]: binds

Molecule: B2
Kd [6]: 1600 µM

Molecule: B3
Kd [7]: 2.4 µM | Kd [8]: 4.3 µM | Kd [9]: 2 µM | binding result [10]: binds | binding result [11]: binds

Kd [6]: 580 µM
Molecule: ARTK(Me)QTARKSTG [histone H3K4me1 peptide]
